Test results as given in patent US20170304437A1 (ALLIGATOR BIOSCIENCE, published 2017).
Each block holds one binder with its values, some of them ahead of it.

How the values were obtained:
[1] = molecular target: T1, human CTLA4-Fc (Fitzgerald #30R-CD152) (human, UniProt P16410 38-152); experiment: Biacore SPR, CD28/CTLA-4 Kd ratio against that of wild type
T1 construct: Bought reagent; also called biotinylated-CTLA4; human CTLA-4 (Fitzgerald); not shown: Fc part of the bought fusion
Method: The CD86 mutant molecules and controls (serially diluted 1/2 100-1.5 nM) were analyzed for binding in HBs-P (GE, BR-1003-69) at a flow rate […]. The association was followed for 3 minutes and the dissociation for 10 minutes. Regeneration was performed twice using 5 mM NaOH for 30 seconds. The kinetic parameters and the affinity constants were calculated using BlAevaluation 4.1 software.

[2] = molecular target: T1, human CTLA4-Fc (Fitzgerald #30R-CD152); experiment: binding ELISA, CD28/CTLA-4 EC50 ratio against that of wild type
Method: The plates were washed (Wash buffer: PBS+0.05% Tween 20 (PBST) Medicago #09-9410-100) and then blocked in PBST+3% BSA (Merck, #1.12018.0100).
The plates were washed again and sample or controls (serially diluted 1/5 from 200-0.001 μg/ml) were added to the wells. The samples were incubated for 1 h at room temperature and then washed. Detection antibody, goat-anti-human IgG Fcγ-HRP (Jackson, #109-035-098) was added and the plates were subsequently developed using SuperSignal Pico Chemiluminescent substrate (Thermo #37069) and detected with an Envision reader

[3] = molecular target: T2, CD28-Fc (provided by Simon Davis, Oxford University) (human, UniProt P10747 19-152, limits assumed); experiment: binding ELISA, coated CD28-Fc
T2 construct: Gift reagent; not shown: Fc part
Method: (§1) The plates were washed (Wash buffer: PBS+0.05% Tween 20 (PBST) Medicago #09-9410-100) and then blocked in PBST+3% BSA (Merck, #1.12018.0100). The plates were washed again and sample or controls (serially diluted 1/3 from 50 000-0001 nM) were added to the wells. The samples were incubated for 1 h at room temperature and then washed. Detection antibody, goat-anti-human IgG Fγy-HRP (Jackson, #109-035-098) was added and the plates were subsequently developed using SuperSignal Pico Chemiluminescent substrate (Thermo #37069) and detected with an Envision reader (Perkin Elmer).

[4] = molecular target: T1, human CTLA4-Fc (Fitzgerald #30R-CD152); experiment: binding ELISA, CTLA4-Fc coated, sample titrated, anti-human IgG Fc-HRP, chemiluminescence, data normalised to % [upper panel]
Method: as §1

[5] = molecular target: T1, human CTLA4-Fc (Fitzgerald #30R-CD152); experiment: binding ELISA, coated CTLA4-Fc; high end tied to 1040 by Table 7
Method: as §1

[6] = molecular target: T1, human CTLA4-Fc (Fitzgerald #30R-CD152); experiment: inhibition ELISA: sample titrated, pre-incubated with biotinylated CTLA4-Fc, mixture added to coated wildtype CD86-Fc (competitor), streptavidin-HRP [lower panel]
Method: (§2) The plates were washed (Wash buffer: PBS+0.05% Tween 20 (PBST) Medicago #09-9410-100) and then blocked in PBST+3% BSA (Merck, #1.12018.0100). The sample (CD86 mutant or wild type protein; serially diluted 1/4 from 30000 to 0.3 ng/ml) was incubated with biotinylated-CTLA4 (Fitzgerald #30R-CD152) in room temperature 1 h, the mixture was then added to the blocked wells in the ELISA plate. Detection was performed with Streptavidin-HRP (Pierce #21126) and the plates were subsequently developed using SuperSignal Pico Chemiluminescent substrate (Thermo #37069) and detected with Envision reader (Perkin Elmer).

[7] = molecular target: T1, human CTLA4-Fc (Fitzgerald #30R-CD152); experiment: inhibition ELISA; best molecule is 1040 by Table 8
Method: as §2

[8] = molecular target: T1, human CTLA4-Fc (Fitzgerald #30R-CD152); experiment: binding ELISA, coated CTLA4-Fc; low end tied to 1042 by Table 7
Method: as §1

[9] = molecular target: T1, human CTLA4-Fc (Fitzgerald #30R-CD152); experiment: binding ELISA, CTLA4-Fc coated, sample titrated, anti-human IgG Fc-HRP, chemiluminescence
Method: as §1, with “The plates were washed again and sample or controls (serially diluted 1/3 from 50 000-0001 nM) were added to the wells.” left out, “Fcγ-HRP” for “Fγy-HRP”, “with” for “with an”

[10] = molecular target: T3, CD40-Fc (R&D #1493-CD) (human, UniProt P25942 21-193); experiment: SPR (Biacore 3000), CD40-Fc immobilised, control antibody injected
T3 construct: Bought reagent immobilised on the Biacore chip; also called human CD40; not shown: Fc part of the bought fusion
Method: CD40-Fc (R&D #1493-CD) was immobilized to the BIAcore sensorship, CMS, using conventional amine coupling. 0.5 uM Bispecific construct (957/530) was injected over immobilized CD40 for 3 minutes and the dissociation was followed for 3 minutes. 2.17 uM CTLA4-Fc (Orencia, Bristol-Mayers Squibb) was injected over the CD40-Bispecific complex for 3 minutes and the dissociation phase was followed for 3 minutes. The chip was finally regenerated using 10 mM Glycine, pH 1.7. A Biacore 3000 instrument was used according to the manufacturer's protocols.

[11] = molecular target: T4, CTLA4-Fc (Orencia, Bristol-Mayers Squibb) (human, UniProt P16410 38-152); experiment: dual ELISA: CD40-Fc coated, antibody at 0.2 ug/ml captured, biotinylated CTLA4-Fc titrated, streptavidin-HRP
T4 construct: Commercial drug Orencia; Biotinylated in the dual ELISA; also called soluble CTLA-4; human CTLA-4; not shown: Fc part of Orencia
Method: In short, 96-well flat bottom plate high binding plates (Greiner #655074) were coated with CD40-Fc (Ancell # 504-820) by incubating overnight at 4° C. The plates were washed (Wash buffer: PBS+0.05% Tween 20 (PBST) Medicago #09-9410-100) and then blocked in PBST+3% BSA (Merck, #1.12018.0100). […] The samples were incubated for 1 h at room temperature and then washed.

T1 sequence (P16410 38-152 limits assumed): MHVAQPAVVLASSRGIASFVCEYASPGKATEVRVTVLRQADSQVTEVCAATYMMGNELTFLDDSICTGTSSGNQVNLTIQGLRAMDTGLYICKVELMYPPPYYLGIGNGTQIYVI
T3 sequence (P25942 21-193 limits assumed): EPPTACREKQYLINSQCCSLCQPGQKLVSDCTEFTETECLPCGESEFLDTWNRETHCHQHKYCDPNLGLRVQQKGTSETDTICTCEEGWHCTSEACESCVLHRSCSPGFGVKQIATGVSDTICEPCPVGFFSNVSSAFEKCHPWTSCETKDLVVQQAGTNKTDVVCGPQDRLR
T4 sequence (P16410 38-152 limits assumed): as the sequence (P16410 38-152 limits assumed) above

B1: CD86 mutant clone 904, gamma2/gamma4 Fc fusion (Fc fusion)
chain: LKIQAYFNETADLPCQFANSQNQSLSELIVFWQDQENLVLNEVYLGKERFDAVDSKYMGRTSFDSDSWTLRLHNLQIKDKGIYQCIIHHKKPSGMVKIHQMDSELSVLA
notes: Fusion to gamma2/gamma4 Fc, HEK293; not shown: gamma2/gamma4 Fc
fold of Kd binding ratio over wild type protein CD86 [1]: > 4 fold

B2: CD86 mutant clone 907, gamma2/gamma4 Fc fusion (Fc fusion)
chain: LKIQAYFNETADLPCQFANSQNQSLSELVVFWQDQENLVLNEVYLGKEKFDSVHSKYMGRTSFDSDSWTLRLHNLQIKDKGLYQCIIHHKKPTGMIKIHEMNSELSVLA
notes: as for B1
fold of EC50 binding ratio over wild-type protein CD86 [2]: ~10 fold

B3: CD86 mutant clone 1040, gamma2/gamma4 fusion (Fc fusion)
chain: APLKIQAYFNETADLPCQFANSQNLSLSELVVFWQDQENLVLNEVYLGKERFDSVDSKYMGRTSFDSDSWTLRLHNLQIKDKGRYQCIIHHKKPTGMINIHQMNSELSVLA
notes: Expressed as gamma2/gamma4 fusion, protein A purified; not shown: gamma2/gamma4 Fc
binding result [3]: no binding | EC50 (read off the curve) [4]: ~0.009 µg/mL | fold improvement of EC50 over wild type [5]: 2 to 67 fold | IC50 (read off the curve) [6]: ~0.05 µg/mL | fold improvement of IC50 over wild type [7]: > 100 fold

The next lines start with results.

binding result [3]: no binding | EC50 (read off the curve) [4]: ~0.3 µg/mL | fold improvement of EC50 over wild type [8]: 2 to 67 fold
B4: CD86 mutant clone 1042, gamma2/gamma4 fusion (Fc fusion)
chain: APLKIQAYFNETADLPCQFANSQNLSLSELVVFWQDQENLVLNEVYLGKEIFDSVSSKYMGRTSFDSDSWTLRLHNLQIKDKGIYQCIIHHKKPSGMVKIHQMDSELSVLA
notes: as for B3

binding result [10]: binds
B5: Antibody A2-54 (monospecific anti-CD40) (antibody, human IgG1, kappa, V domains shown)
VH: EVQLLESGGGLVQPGGSLRLSCAASGFTFSDYYMSWVRQAPGKGLEWISSISSNGIYIYYADSLKGRFTISRDNSKNTLYLQMNSLRAEDTAVYYCARAPVDYSNPSGMDVWGQGTLVTVSS
VL: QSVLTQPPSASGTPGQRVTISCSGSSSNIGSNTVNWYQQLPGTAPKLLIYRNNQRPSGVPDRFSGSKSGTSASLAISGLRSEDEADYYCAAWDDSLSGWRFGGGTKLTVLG
notes: VH-gamma1 / VL-kappa; also called control Ab
binding result [9]: no binding (tested: log 1.2 µg/mL (about 16 µg/mL)) | binding result [11]: no binding (tested: 20 µg/mL of hCTLA-4-bio)
